Laboratory results reported in publication PMC6982183.

Biological target: human Hsp60 wild type (human)
Test: SEC; Superdex 200 Increase 10/300 GL, 50 mM Tris-HCl (pH 7.8 at 25 °C), 2 mM DTT, 2 mM EDTA, 0.5 mg sample, 0.75 mL/min; size from calibration with molecular weight standards; before and after agitation

Q: human Hsp60 wild type (natural protein) was tested. Which stoichiometry N did it give?
A: The stoichiometry N was 14.
